B1: Tyrosine-protein phosphatase non-receptor type 1 (Homo sapiens), P18031 (parent)
chain: MEMEKEFEQIDKSGSWAAIYQDIRHEASDFPCRVAKLPKNKNRNRYRDVSPFDHSRIKLHQEDNDYINASLIKMEEAQRSYILTQGPLPNTCGHFWEMVWEQKSRGVVMLNRVMEKGSLKCAQYWPQKEEKEMIFEDTNLKLTLISEDIKSYYTVRQLELENLTTQETREILHFHYTTWPDFGVPESPASFLNFLFKVRESGSLSPEHGPVVVHCSAGIGRSGTFCLADTCLLLMDKRKDPSSVDIKKVLLEMRKFRMGLIQTADQLRFSYLAVIEGAKFIMGDSSVQDQWKELSHEDLEPPPEHIPPPPRPPKRILEPHNGKCREFFPNHQWVKEETQEDKDCPIKEEKGSPLNAAPYGIESMSQDTEVRSRVVGGSLRGAQAASPAKGEPSLPEKDEDHALSYWKPFLVNMCVATVLTAGAYLCYRFLFNSNT

The variants in this assay derive from B1. The conditions noted are these: with k2c8_human KRT8, P05787.
Chain of k2c8_human KRT8, P05787 (P05787 whole entry): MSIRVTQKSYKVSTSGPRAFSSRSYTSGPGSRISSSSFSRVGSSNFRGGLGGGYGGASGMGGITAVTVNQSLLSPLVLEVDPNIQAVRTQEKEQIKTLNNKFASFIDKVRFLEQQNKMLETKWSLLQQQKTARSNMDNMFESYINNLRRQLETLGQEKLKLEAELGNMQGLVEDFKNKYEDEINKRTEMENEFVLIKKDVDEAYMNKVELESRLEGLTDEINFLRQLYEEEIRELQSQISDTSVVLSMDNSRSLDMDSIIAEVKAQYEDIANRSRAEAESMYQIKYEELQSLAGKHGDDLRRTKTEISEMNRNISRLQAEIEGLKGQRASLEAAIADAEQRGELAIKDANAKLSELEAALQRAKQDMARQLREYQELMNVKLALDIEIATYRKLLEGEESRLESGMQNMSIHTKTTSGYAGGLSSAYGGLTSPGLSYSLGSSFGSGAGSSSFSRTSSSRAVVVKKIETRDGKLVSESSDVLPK
Regarding D181A, the “effect of a mutation on the interaction” value is “increasing interaction strength”.
